± gives the uncertainty stated by the source.
Test: self-splicing fitness, log relative to wild type (ln ratio); higher = more splicing; Tetrahymena group I intron in knt gene, E. coli kanamycin selection, DiMSum; sequences stand for … in CUCUCU…GGAGGGAAAAGUUAUCAGGCAUGCACCUGGUAGCUAGUCUUUAAACCAAUAGAUUGCAUCGGUUUAAAAGGCAAGACCGUCAAAUUGCGGGAAAGGGGUCAACAGCCGUUCAGUACCAAGUCUCAGGGGAAACUUUGAGAUGGCCUUGCAAAGGGUAUGGUAAUAAGCUGACGGACAUGGUCCUAACCACGCAGCCAAGUCCUAAGUCAACAGAUCUUCUGUUGAUAUGGAUGCAGUUCACAGACUAAAUGUCGGUCGGGGAAGAUGUAUUCUUCUCAUAAGAUAUAGUCGGACCUCUCCUUAAUGGGAGCUAGCGGAUGAAGUGAUGCAACACUGGAGCCGCUGGGAACUAAUUUGUAUGCGAAAGUAUAUUGAUUAGUUUUGGAGUACUCGUGGUCG
In short: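 DiMSum derived fitness as the error-weighted combination of fold changes across replicates, kanamycin versus no kanamycin, normalised to wild type. E. coli BL21(DE3) held the library, which randomised all eight P1ex-region intron nucleotides within the knt kanamycin-resistance gene on pET-22b(+). Six replicate transformations grew overnight at 37°C or 30°C on LB agar with or without 25 μg/mL kanamycin, also containing 100 μg/mL carbenicillin, 50 μM IPTG and 0.2% rhamnose, and pooled colonies were amplicon-sequenced on an Illumina HiSeq 2500.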

Sequence | self-splicing fitness (ln) (30 °C) | self-splicing fitness (ln) (37 °C)
AGGCAGCAAUAUUACGCGCC | -2.4 ± 0.32 | -0.401 ± 0.29
AGGCAGCAAUAUUACGGACA | -0.916 ± 0.12 | -0.346 ± 0.13
AGGCAGCAAUAUUACGGCCU | -3.36 ± 0.18 | -2.37 ± 0.24
AGGCAGCAAUAUUACGGGAC | -3.48 ± 0.23 | -1.94 ± 0.19
AGGCAGCAAUAUUACGGUAU | -1.79 ± 0.093 | -0.467 ± 0.1
AGGCAGCAAUAUUACGGUCA | -0.0713 ± 0.069 | -0.148 ± 0.079
AGGCAGCAAUAUUACGUCAC | -1.74 ± 0.13 | -1.25 ± 0.28
AGGCAGCAAUAUUACGUCUC | -4.52 ± 0.23 | -2.03 ± 0.14
AGGCAGCAAUAUUACGUGGC | -2.88 ± 0.2 | -2.58 ± 0.22
AGGCAGCAAUAUUACGUGUA | -2.19 ± 0.1 | -1.09 ± 0.11
AGGCAGCAAUAUUACGUUCG | -0.642 ± 0.079 | -0.181 ± 0.11
AGGGAGCAAUAUUACGAAGU | -2.4 ± 0.37 | -2.14 ± 0.32
AGGGAGCAAUAUUACGACAC |  | -1.18 ± 0.29
AGGGAGCAAUAUUACGACAG | -2.9 ± 0.13 | -2.62 ± 0.22
AGGGAGCAAUAUUACGACCU | -4.11 ± 0.33 | -1.67 ± 0.25
AGGGAGCAAUAUUACGAGAG | -3.23 ± 0.4 | -3.84 ± 0.46
AGGGAGCAAUAUUACGAGUC | -2.9 ± 0.3 | 
AGGGAGCAAUAUUACGAUUU | -2.26 ± 0.18 | -1.92 ± 0.29
AGGGAGCAAUAUUACGCAAG |  | -1.54 ± 0.3
AGGGAGCAAUAUUACGCCAU | -3.13 ± 0.43 | 

Sequence | self-splicing fitness (ln) (30 °C) | self-splicing fitness (ln) (37 °C)
AGGGAGCAAUAUUACGCCUA | -1.43 ± 0.26 | -1.68 ± 0.21
AGGGAGCAAUAUUACGCGCU | -2.13 ± 0.23 | -0.719 ± 0.39
AGGGAGCAAUAUUACGCGUU |  | -2.46 ± 0.44
AGGGAGCAAUAUUACGGUAA |  | -2.46 ± 0.44
AGGGAGCAAUAUUACGGUUA | -2.53 ± 0.17 | -2.98 ± 0.28
AGGGAGCAAUAUUACGGUUC |  | -1.7 ± 0.42
AGGGAGCAAUAUUACGUAAA | -3.55 ± 0.31 | -2.73 ± 0.44
AGGUAGCAAUAUUACGAAUA | -2.28 ± 0.026 | -1.51 ± 0.037
AGGUAGCAAUAUUACGACGU | 0.156 ± 0.014 | 0.233 ± 0.033
AGGUAGCAAUAUUACGAGCU | -0.0909 ± 0.015 | -0.123 ± 0.034
AGGUAGCAAUAUUACGAGUC | -3.864 ± 0.037 | -2.49 ± 0.043
AGGUAGCAAUAUUACGAUGA | -0.948 ± 0.016 | -0.562 ± 0.034
AGGUAGCAAUAUUACGCCCC | -1.92 ± 0.044 | -1.56 ± 0.063
AGGUAGCAAUAUUACGCUCC | -3.31 ± 0.052 | -2.43 ± 0.064
AGGUAGCAAUAUUACGCUGG | -3.816 ± 0.035 | -2.83 ± 0.046
AGGUAGCAAUAUUACGGAGG | -4.103 ± 0.034 | -3.11 ± 0.043
AGGUAGCAAUAUUACGGCCC | -2.77 ± 0.044 | -1.91 ± 0.058
AGGUAGCAAUAUUACGGCGU | -0.0406 ± 0.013 | 0.231 ± 0.033
AGGUAGCAAUAUUACGGGAG | -3.83 ± 0.03 | -2.39 ± 0.038
AGGUAGCAAUAUUACGGUCG | -0.351 ± 0.014 | -0.0478 ± 0.034

— the supplement of paper PMC7877785
